Assay results: publication PMC6044281, “Cooperative Domain Formation by Homologous Motifs in HOIL-1L and SHARPIN Plays A Crucial Role in LUBAC Stabilization” (Cell reports, 2018)

B1: MBP-mSHARPIN UBL_(163–301) [mouse] / mHOIL-1L_(1–189)-strep [mouse] (parent complex)
chain 1: SSGNFKKEELATRLSQAIAGGDEKAAAQVAAVLAQHHVALNVQLMEAWFPPGPIRLQVTVEDATSVLSSSSSAHVSLKIHPHCSIAALQDQVFSEFGFPPAVQRWVIGRCLCMPERSLASYGVSQDGDPAFLYLLSAPR
chain 2: MDEKTKKAEEMALSLARAVAGGDEQAAIKYATWLAEQRVPLRVQVKPEVSPTQDIRLCVSVEDAYMHTVTIWLTVRPDMTVASLKDMVFLDYGFPPSLQQWVVGQRLARDQETLHSHGIRRNGDGAYLYLLSARNTSLNPQELQRQRQLRMLEDLGFKDLTLQSRGPLEPVLPKPRTNQEPGQPDAAPE
B2: mHOIL-1L_(1–140) and mSHARPIN_(163–301) applied together [mouse] / GST-mHOIP_(466–630) [mouse] (parent complex)
chain 1: MDEKTKKAEEMALSLARAVAGGDEQAAIKYATWLAEQRVPLRVQVKPEVSPTQDIRLCVSVEDAYMHTVTIWLTVRPDMTVASLKDMVFLDYGFPPSLQQWVVGQRLARDQETLHSHGIRRNGDGAYLYLLSARNTSLNP
chain 2: B1 chain 1
chain 3: SCGDPEKQRQDKMRKEGLQLVSMIQEGETAGASPEEVFSALQYSGTEVPLQWLRSELSYVLEMVAELAGQQDPELGAFSCQEARKAWLDRHGNLDEAVEECVRARRRKVHELQSLGFGPKEGSLQALFQHGGDVARALTELQRQRLEPFHQRLWDRDPEPTPCWD
B3: mHOIL-1L_(1–140) [mouse] / GST-mHOIP_(466–630) [mouse] (parent complex)
chain 1: B2 chain 1
chain 2: B2 chain 3
B4: mSHARPIN_(163–301) [mouse] / GST-mHOIP_(466–630) [mouse] (parent complex)
chain 1: B1 chain 1
chain 2: B2 chain 3

Variants of: B1
Test: SPR; analyte 40 mM as printed in the legend; response read at end of injection (about 175 s); mHOIL-1L1-189-strep immobilized with anti-strep antibody; parent: 45; read off a plot

response [RU]	Variant
~3	chain 1 L14A, chain 1 I18A

Variants of: B2
Test: SPR; response read at end of injection (about 180 s); GST-mHOIP D-UBA UBA2mut immobilized with anti-GST antibody; read off a plot

response [RU]	Variant
~120	chain 3 Q142A, chain 3 L146A, chain 3 F149A

Variants of: B2
Test: SPR; response read at end of injection (about 180 s); GST-mHOIP D-UBA UBA1mut immobilized with anti-GST antibody; read off a plot

response [RU]	Variant
~170	chain 3 R9A, chain 3 L18A, chain 3 V21A

Variants of: B3
Test: as above

response [RU]	Variant
~60	chain 2 R9A, chain 2 L18A, chain 2 V21A

Variants of: B3
Test: SPR; response read at end of injection (about 180 s); GST-mHOIP D-UBA UBA2mut immobilized with anti-GST antibody; read off a plot

response [RU]	Variant
~-3	chain 2 Q142A, chain 2 L146A, chain 2 F149A

Variants of: B4
Test: SPR; response read at end of injection (about 180 s); GST-mHOIP D-UBA UBA1mut immobilized with anti-GST antibody; read off a plot

response [RU]	Variant
~0	chain 2 R9A, chain 2 L18A, chain 2 V21A

Variants of: B4
Test: SPR; response read at end of injection (about 180 s); GST-mHOIP D-UBA UBA2mut immobilized with anti-GST antibody; read off a plot

response [RU]	Variant
~5	chain 2 Q142A, chain 2 L146A, chain 2 F149A
